Assay results as given in patent publication US20190144550A1 (Pfizer, published 2019).
Numbering of substitutions follows the chain as printed.

B1: 30D8 (antibody, V domains shown)
VH: EVQLVESGGGLVKPGGSLRLSCEASGFTFSDAWMSWVRQAPGKGLEWVGRIKSKTDGGTTDYVVPLNGRFIISRDDSRNTLYLQLNNLKTEDTAVYYCTTVPGSYGYWGQGTLVTVSS
VL: DIVMTQSPLSLPVTPGEPASISCRSSQSLLHNKRNNYLDWFLQKPGQSPQLLIYLASNRASGVPDRFSGGGSGTDFTLKISRVEAEDVGVYYCMQAQQTPITFGQGTRLEIK
notes: Hybridoma supernatant (AlivaMab mouse); captured/detected via mouse Fc
B2: 20G5 (antibody, V domains shown)
VH: EVQLVESGGDLVKPGGSLRLSCAASGFTFTNAWMSWVRQAPGKGLEWVGRIKSKIDGGTTDYAAPVKGRFIISRDDSKNTLSLQMNSLKTEDTAMYYCTTAPGGPFDYWGQGSLVTVSS
VL: DIVLTQSPLSLPVTPGEPASISCRSSQSLLYSDRRNYLDWFLQKPGQSPHLLIYLGSYRASGVPDRFSGSGSGTDFTLKISRVEAEDVGVYYCMQALQIPITFGQGTRLEIK
notes: as for B1
B3: 26B9 (antibody, V domains shown)
VH: EVQLVESWGVLVKPGGSLRLSCAASGFIFNNAWMSWVRQAPGKGLEWIGRIKSKSDGGTTDYAAPVKDRFTISRDDSKDTLYLQMNGLKTEDTAVYFCTTAPGGPFDYWGQGTLVTVSS
VL: B2 VL with Y31H, S32R, R34G, R35F, H50Q, G56A, Y58S, G71D, I99T
notes: as for B1
B4: 20E12 (antibody, V domains shown)
VH: EVNLVESGGGLVKPGGSLRLSCEASGFTFSYAWMSWVRQAPGKGLEWVGRIKSIADGGATDYAAPVRNRFTISRDDSRNTLYLEMHSLKTEDTAVYYCTTIPGNDAFDMWGQGTMVTVSS
VL: DIVLTQSPLSLSVTPGEPASISCRSSQSLLYSNGKNYLDWFLHKPGQSPQLLIYLGSNRASGVPDRFSGSGSGIDFILKISRVEAEDVGVYYCMQAQQTPITFGQGTRLEIK
notes: as for B1
B5: 34E7 (antibody, V domains shown)
VH: B4 VH with A55N, A64S, T80M, M115L
VL: B4 VL with S26T, Y54F, N58I
notes: as for B1
B6: 32G8 (antibody, V domains shown)
VH: B4 VH with A55T, A59V, T60I, F70C, A106D, T114R
VL: B4 VL
notes: as for B1
B7: 32A10 EGFRvIII specific CAR (other)
chain: QVTLKESGPVLVKPTETLTLTCTVSGFSLSNARMGVSWIRQPPGKALEWLAHIFSTDEKSIRRSLRSRLTLSKDTSKSQVVLTMTNMDPVDTATYFCARDSSNYEGYFDYWGQGTLVTVSSGGGGSGGGGSGGGGSGGGGSEVVMTQSPATLSVSPGERVTLSCRASQSVSSNFAWYQQRPGQAPRLLLYGATTRATGLPGRFSGSGSGTENILTISSLQSEDFAIYFCQQYKDWPFTFGPGSKVDIKTTTPAPRPPTPAPTIASQPLSLRPEACRPAAGGAVHTRGLDFACDIYIWAPLAGTCGVLLLSLVITLYCKRGRKKLLYIFKQPFMRPVQTTQEEDGCSCRFPEEEEGGCELRVKFSRSADAPAYQQGQNQLYNELNLGRREEYDVLDKRRGRDPEMGGKPRRKNPQEGLYNELQKDKMAEAYSEIGMKGERRRGKGHDGLYQGLSTATKDTYDALHMQALPPR
notes: Chimeric antigen receptor on primary human T cells
B8: 42G9 EGFRvIII specific CAR (other)
chain: QVTLKESGPVLLKPTETLTLTCTVSGFSLSNPRMGVSWIRQPPGKALEWFAHIFSTDEKSLKLSLRSRLTLSKDTSKSQVVLTMTNMAPVDSATYYCARDSSNYEGYFDFWGQGTLVTVSSGGGGSGGGGSGGGGSGGGGSEVVLTQSPATLSVSPGERATLSCRASQSVRSNLAWYQQKSGQAPRLLIYGSTIRATGVPARFSGSGSGTEFTLTISSLQSEDFAVYYCQQYSDWPFTFGPGTKVDIKTTTPAPRPPTPAPTIASQPLSLRPEACRPAAGGAVHTRGLDFACDIYIWAPLAGTCGVLLLSLVITLYCKRGRKKLLYIFKQPFMRPVQTTQEEDGCSCRFPEEEEGGCELRVKFSRSADAPAYQQGQNQLYNELNLGRREEYDVLDKRRGRDPEMGGKPRRKNPQEGLYNELQKDKMAEAYSEIGMKGERRRGKGHDGLYQGLSTATKDTYDALHMQALPPR
notes: as for B7
B9: 14C11 EGFRvIII specific CAR (other)
chain: QVTLKESGPVLVKPTETLTLTCTVSGFSLNNARMGVSWIRQPPGKALEWFAHIFSTDEKSFRTSLRSRLTLSKDTSKSQVVLTMTNMDPVDTATYYCARDSSNYEGYFDYWGQGILVTVSSGGGGSGGGGSGGGGSGGGGSEIVMTQSPATLSVSPGERATLSCRASQSVSNNLAWYQQKPGQAPRLLIYGASTRATGVPARFSGSDSGTEFSLTISSLQSEDFAVYFCQQYKDWPFTFGPGTKVEIKTTTPAPRPPTPAPTIASQPLSLRPEACRPAAGGAVHTRGLDFACDIYIWAPLAGTCGVLLLSLVITLYCKRGRKKLLYIFKQPFMRPVQTTQEEDGCSCRFPEEEEGGCELRVKFSRSADAPAYQQGQNQLYNELNLGRREEYDVLDKRRGRDPEMGGKPRRKNPQEGLYNELQKDKMAEAYSEIGMKGERRRGKGHDGLYQGLSTATKDTYDALHMQALPPR
notes: as for B7
B10: 20E12 EGFRvIII specific CAR (other)
chain: EVNLVESGGGLVKPGGSLRLSCEASGFTFSYAWMSWVRQAPGKGLEWVGRIKSIADGGATDYAAPVRNRFTISRDDSRNTLYLEMHSLKTEDTAVYYCTTIPGNDAFDMWGQGTMVTVSSGGGGSGGGGSGGGGSGGGGSDIVLTQSPLSLSVTPGEPASISCRSSQSLLYSNGKNYLDWFLHKPGQSPQLLIYLGSNRASGVPDRFSGSGSGIDFILKISRVEAEDVGVYYCMQAQQTPITFGQGTRLEIKTTTPAPRPPTPAPTIASQPLSLRPEACRPAAGGAVHTRGLDFACDIYIWAPLAGTCGVLLLSLVITLYCKRGRKKLLYIFKQPFMRPVQTTQEEDGCSCRFPEEEEGGCELRVKFSRSADAPAYQQGQNQLYNELNLGRREEYDVLDKRRGRDPEMGGKPRRKNPQEGLYNELQKDKMAEAYSEIGMKGERRRGKGHDGLYQGLSTATKDTYDALHMQALPPR
notes: as for B7
B11: 20B9 EGFRvIII specific CAR (other)
chain: QVTLKESGPVLVKPTETLTLTCTVSGFSLSNARMGVSWIRQPPGKALEWLGHIFSTDEKSYSTSLRGRITISKDTSRGLVVLTLTNMDPVDTATYYCARDSSNYEGYFDFWGPGFLVTVSSGGGGSGGGGSGGGGSGGGGSEIVMTQSPATLSVSPGERATLSCRVSQSIGANLAWYQQKFGQAPRLLIYGASTRATGIPVRFSGGGSGTEFTLTISSLQSEDFAIYSCQQYIYWPFTFGPGTTVDIKTTTPAPRPPTPAPTIASQPLSLRPEACRPAAGGAVHTRGLDFACDIYIWAPLAGTCGVLLLSLVITLYCKRGRKKLLYIFKQPFMRPVQTTQEEDGCSCRFPEEEEGGCELRVKFSRSADAPAYQQGQNQLYNELNLGRREEYDVLDKRRGRDPEMGGKPRRKNPQEGLYNELQKDKMAEAYSEIGMKGERRRGKGHDGLYQGLSTATKDTYDALHMQALPPR
notes: as for B7
B12: h62G7-L6/EQ EGFRvIII specific CAR (other)
chain: DVVMTQSPLSLPVTLGQPASISCKSSQSLLYSNGKTYLNWFQQRPGQSPRRLIYQVSKLDSGVPDRFSGSGSGTDFTLKISRVEAEDVGVYYCGQDTHFPLTFGGGTKVEIKGGGGSGGGGSGGGGSGGGGSQVQLVQSGAEVKKPGASVKVSCKASGYTFTDYTLHWVRQAPGQGLEWMGGIWPITGGTTYNQKFKGRVTMTRDTSTSTVYMELSSLRSEDTAVYYCARGEAQGSWGQGTLVTVSSTTTPAPRPPTPAPTIASQPLSLRPEACRPAAGGAVHTRGLDFACDIYIWAPLAGTCGVLLLSLVITLYCKRGRKKLLYIFKQPFMRPVQTTQEEDGCSCRFPEEEEGGCELRVKFSRSADAPAYQQGQNQLYNELNLGRREEYDVLDKRRGRDPEMGGKPRRKNPQEGLYNELQKDKMAEAYSEIGMKGERRRGKGHDGLYQGLSTATKDTYDALHMQALPPR
notes: as for B7

The binders below were run against T1, 8-histidine tagged recombinant wild-type protein EGFRwt (UniProt P00533 25-645, limits assumed) (assay: SPR, captured by anti-mouse Fc).
T1 construct: not shown: 8-histidine tag

binding result | Binder
no binding (tested: 1000 nM) | B1
no binding (tested: 1000 nM) | B2
no binding (tested: 1000 nM) | B3
no binding (tested: 1000 nM) | B4
no binding (tested: 1000 nM) | B5
no binding (tested: 1000 nM) | B6

What follows are binders tested against T2, EGFR-mFc (human; mouse, UniProt P00533 25-645) (assay: flow cytometry, CAR T cells stained with mFc fusion protein, Day 4).
T2 construct: extracellular domain; Produced in HEK293 cells; also called recombinant EGFR-mFc; not shown: mouse IgG1-Fc domain
Description: To determine target binding specificity of the CARs, recombinant proteins EGFRvII-mFc and EGFR-mFc, which comprise of the extracellular domain of either human EGFRvIII or human wild-type EGFR, respectively, fused with mouse IgG1-Fc domain, were produced in HEK293 cells. […]

binding result | Binder
no binding | B7
no binding | B8
no binding | B9
no binding | B10
no binding | B11
no binding | B12

What follows are binders tested against T3, Monomeric 8-histidine tagged human EGFRvIII extracellular domain (human, UniProt P00533 298-645) (assay: SPR, captured by anti-mouse Fc, 37 C).
T3 construct: Analyte in all SPR assays; not shown: 8-histidine tag
Description: To generate human antibodies against EGFRvIII, transgenic AlivaMab mice (Ablexis LLC, San Francisco, Calif.) were immunized with alternating schedule of paraformaldehyde-fixed rat glioblastoma cell line expressing EGFRvIII, F98-npEGFRvIII (American Type Culture Collection, Manassas, Va.) and peptides (SEQ ID NO: 227: […]) directed to the junction region in EGFRvIII. Hybridomas were generated using standard techniques. To determine the binding affinity and specificity of these hybridomas to EGFRvIII, antibodies in culture supernatants were captured by anti-mouse Fc using Biacore™ T200 biosensor equipped with anti-mouse Fc coupled CM4 sensor chips (Biacore™ AB, Uppsala, Sweden—now GE Healthcare). Monomeric 8-histidine tagged human EGFRvIII extracellular domain was then injected as the analyte at 10-fold dilution series starting with top concentration 1000 nM. Affinity of anti-EGFRvIII antibodies towards human EGFRvIII was measured at 37° C.

Kd [nM] | koff [s⁻¹] | kon [M⁻¹ s⁻¹] | Binder
172 | 0.0277 | 161000 | B1
231 | 0.0289 | 125000 | B2
244 | 0.032 | 131000 | B3
353 | 0.0141 | 39900 | B4
340 | 0.0128 | 37700 | B5
1790 | 0.0122 | 6820 | B6

Each binder was assayed against T4, human EGFRvIII expressed on cells (human, UniProt P00533 298-1210) (assay: flow cytometry, F98-npEGFRvIII cells).
T4 construct: the F98-npEGFRvIII line was obtained from ATCC and its construct is not described; also called F98-npEGFRvIII; F98-EGFRvIII

% positive [%] | MFI | Binder
98.6 | 5160 | B1
98.5 | 4640 | B2
98.6 | 5400 | B3
97.9 | 3980 | B4
98.5 | 4130 | B5
98.6 | 3730 | B6

The binders below were run against T4, human EGFRvIII expressed on cells (assay: flow cytometry, F98-npEGFRvIII against F98, F98-EGFRwt and A431 cells).

fold MFI on EGFRvIII expressing cell line over non-expressing cell lines [fold] | Binder
≥ 10 | B1
≥ 10 | B3
≥ 10 | B4
≥ 10 | B5
≥ 10 | B6
